In patent US20180177850A1 (HANMI PHARM, published 2018):
Bridges are numbered along the chain shown (N, C = ends). Where no end group is shown, it is not given here. [ ]: non-standard residue; d: D form. The star is where a group is joined. Acetyl(2-(4-imidazolyl)) = O=C(Cc1c[nH]cn1)*; Aib = CC(C)(N)C(=O)O

Key:
Assay in all cases: cell-based or functional assay
human glucagon receptor = human glucagon receptor (human, UniProt P47871 26-477)
human GLP-1 receptor = human GLP-1 receptor (human, UniProt P43220 24-463)
[1] = target: human glucagon receptor (human) (UniProt P47871)
[2] = target: human GLP-1 receptor (human) (UniProt P43220)
Sequence of human GLP-1 receptor (human) (P43220 24-463): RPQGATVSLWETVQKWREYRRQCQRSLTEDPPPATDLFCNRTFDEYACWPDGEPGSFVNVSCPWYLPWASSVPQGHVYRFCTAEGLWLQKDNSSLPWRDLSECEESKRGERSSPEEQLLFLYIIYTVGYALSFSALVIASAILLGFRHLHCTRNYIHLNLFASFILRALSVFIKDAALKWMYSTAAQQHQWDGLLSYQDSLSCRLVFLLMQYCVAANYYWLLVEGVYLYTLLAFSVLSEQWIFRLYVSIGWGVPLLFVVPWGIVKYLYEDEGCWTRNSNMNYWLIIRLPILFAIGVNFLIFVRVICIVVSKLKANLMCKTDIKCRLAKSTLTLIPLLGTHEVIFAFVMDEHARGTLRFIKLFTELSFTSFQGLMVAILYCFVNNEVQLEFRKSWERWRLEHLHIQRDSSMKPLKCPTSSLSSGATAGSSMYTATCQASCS

Sequence of human glucagon receptor (P47871 26-477): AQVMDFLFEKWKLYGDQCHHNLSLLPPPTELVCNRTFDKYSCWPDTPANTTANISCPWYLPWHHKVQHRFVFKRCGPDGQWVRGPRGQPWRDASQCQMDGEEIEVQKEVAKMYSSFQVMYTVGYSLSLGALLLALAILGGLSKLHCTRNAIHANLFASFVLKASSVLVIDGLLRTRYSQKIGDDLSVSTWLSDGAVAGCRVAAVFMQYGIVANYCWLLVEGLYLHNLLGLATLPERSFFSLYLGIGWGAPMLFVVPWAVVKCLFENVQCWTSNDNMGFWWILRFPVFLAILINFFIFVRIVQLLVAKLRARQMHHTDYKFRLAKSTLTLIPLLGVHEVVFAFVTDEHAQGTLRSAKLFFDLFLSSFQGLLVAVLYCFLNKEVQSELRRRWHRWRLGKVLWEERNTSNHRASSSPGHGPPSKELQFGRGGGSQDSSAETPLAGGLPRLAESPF
Sequence of human glucagon receptor (human) (P47871 26-477): as above

| Binder | EC50 (cAMP, CHO/GCGR) (human glucagon receptor) [nM] | EC50 (cAMP, CHO/GLP-1R) (human GLP-1 receptor) [nM] | EC50 (cAMP, CHO/GCGR) [1] [nM] | EC50 (cAMP, CHO/GLP-1R) [2] [nM] |
| --- | --- | --- | --- | --- |
| Y[Aib]QGTFTSDYSKYLDEKRAKEFVQWLMNTC (bridge 16-20) [oxyntomodulin derivative of SEQ ID NO: 34] | 1.04 | 12.5 |  |  |
| H[Aib]QGTFTSDYSKYLDEKRAKEFVQWLMNTC (bridge 16-20) [oxyntomodulin derivative of SEQ ID NO: 25] | 1.3 | 1.9 |  |  |
| [Acetyl(2-(4-imidazolyl))]GEGTFTSDLSRQMEEEAVRLFIEWAAHSQGTFTSDYSKYLD [oxyntomodulin derivative of SEQ ID NO: 6] | > 1000 |  |  |  |
| [Acetyl(2-(4-imidazolyl))]GEGTFTSDLSRQMEEEAVRLFIEWAAHSQGTFTSDYSRYLDK [oxyntomodulin derivative of SEQ ID NO: 11] | > 1000 | > 1000 |  |  |
| H[Aib]QGTFTSDYAKYLDEKRAKEFVQWLMNTC (bridge 16-20) [oxyntomodulin derivative of SEQ ID NO: 33] | 80.2 | 2.2 |  |  |
| [Acetyl(2-(4-imidazolyl))]SQGTFTSDYSRYLDEEAVRLFIEWIRNGGPSSGAPPPSK [oxyntomodulin derivative of SEQ ID NO: 18] |  |  | > 1000 | 96.3 |
| [Acetyl(2-(4-imidazolyl))]SQGTFTSDLSRQLEEEAVRLFIEWLMNK [oxyntomodulin derivative of SEQ ID NO: 8] |  |  | > 1000 | 420 |
| [Acetyl(2-(4-imidazolyl))]SQGTFTSDYSKYLDERRAQDFVAWLKNTGPSSGAPPPS [oxyntomodulin derivative of SEQ ID NO: 3] |  |  | 638 | > 1000 |
